Results on four molecules are retold here after PMC4860565, “N6-Methyladenosine: a conformational marker that regulates the substrate specificity of human demethylases FTO and ALKBH5”.

The target of data set [1] is T1, ALKBH5 (Homo sapiens, UniProt Q6P6C2 66-292). The experiment in a line: EMSA; 1 mM MgCl2; no binding at 1250-fold excess protein (5 uM); MST: 50 mM Tris pH 7.5, 150 mM NaCl, 0.05% Tween 20, 25 C; EMSA: 10 mM HEPES pH 7.3, 5% glycerol, 20 mM KCl, 1 mM MgCl2, 1 mM DTT, RNasin, 4 nM RNA, 4 C. Conditions: protein: recombinant; tags: His6 (pNIC28-Bsa4); label: 3' biotin; blunt self-complementary duplex, 2 copies of one strand.

The target of data set [2] is T2, FTO (Homo sapiens, UniProt Q9C0B1 1-505). The data set is described as above. Conditions: protein: recombinant; tags: His6 (pNIC28-Bsa4); label: 3' biotin; blunt self-complementary duplex, 2 copies of one strand.
The target of data set [3] is T2, FTO. The experiment in a line: MST (label-free); 1 mM NiSO4, 500 uM NOG; MST: 50 mM Tris pH 7.5, 150 mM NaCl, 0.05% Tween 20, 25 C; EMSA: 10 mM HEPES pH 7.3, 5% glycerol, 20 mM KCl, 1 mM MgCl2, 1 mM DTT, RNasin, 4 nM RNA, 4 C. Conditions: protein: recombinant, tags: His6 (pNIC28-Bsa4).
Data set [4] deals with T1, ALKBH5. The experiment in a line: MST (label-free); 1 mM MnCl2, NOG presumably as for FTO; MST: 50 mM Tris pH 7.5, 150 mM NaCl, 0.05% Tween 20, 25 C; EMSA: 10 mM HEPES pH 7.3, 5% glycerol, 20 mM KCl, 1 mM MgCl2, 1 mM DTT, RNasin, 4 nM RNA, 4 C. The following applies: protein: recombinant, tags: His6 (pNIC28-Bsa4).
In data set [5] the target is T3, YTHDF2 (Homo sapiens, UniProt Q9Y5A9 385-576).
T3 sequence: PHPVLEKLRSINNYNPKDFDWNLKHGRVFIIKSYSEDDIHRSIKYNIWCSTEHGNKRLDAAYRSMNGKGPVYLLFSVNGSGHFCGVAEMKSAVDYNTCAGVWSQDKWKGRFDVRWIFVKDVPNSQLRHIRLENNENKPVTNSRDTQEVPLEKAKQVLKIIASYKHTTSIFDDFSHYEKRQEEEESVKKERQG
The experiment in a line: EMSA; 1 mM MgCl2; up to 5 uM protein; MST: 50 mM Tris pH 7.5, 150 mM NaCl, 0.05% Tween 20, 25 C; EMSA: 10 mM HEPES pH 7.3, 5% glycerol, 20 mM KCl, 1 mM MgCl2, 1 mM DTT, RNasin, 4 nM RNA, 4 C. The following applies: protein: recombinant; tags: GST (pGEX-6P-1); label: 3' biotin; random coil single strand.

T2 sequence (Q9C0B1 whole entry): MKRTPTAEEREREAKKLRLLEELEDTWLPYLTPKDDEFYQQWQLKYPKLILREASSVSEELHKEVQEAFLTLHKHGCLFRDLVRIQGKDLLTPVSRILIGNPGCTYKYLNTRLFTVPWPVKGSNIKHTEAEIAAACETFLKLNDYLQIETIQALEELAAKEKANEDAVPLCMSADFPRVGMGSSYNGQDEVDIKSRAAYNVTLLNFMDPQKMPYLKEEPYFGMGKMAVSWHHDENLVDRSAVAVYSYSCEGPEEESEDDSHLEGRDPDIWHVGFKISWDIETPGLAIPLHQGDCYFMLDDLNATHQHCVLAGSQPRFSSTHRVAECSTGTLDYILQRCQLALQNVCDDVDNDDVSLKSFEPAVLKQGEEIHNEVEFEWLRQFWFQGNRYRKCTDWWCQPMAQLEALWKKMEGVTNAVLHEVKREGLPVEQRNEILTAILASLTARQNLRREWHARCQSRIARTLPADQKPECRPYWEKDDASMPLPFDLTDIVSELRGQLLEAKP
T1 sequence (Q6P6C2 66-292): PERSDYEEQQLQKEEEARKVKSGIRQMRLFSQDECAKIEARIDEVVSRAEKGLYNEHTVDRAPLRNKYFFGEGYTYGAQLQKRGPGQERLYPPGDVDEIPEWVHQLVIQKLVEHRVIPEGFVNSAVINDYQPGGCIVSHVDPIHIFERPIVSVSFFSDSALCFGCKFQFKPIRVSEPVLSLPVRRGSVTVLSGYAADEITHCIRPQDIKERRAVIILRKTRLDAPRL

B1: biotin-15 (dsRNA)
RNA 1: GCGGACUAGUCCGC
RNA 2: GCGGACUAGUCCGC
modifications: m6A at position 5 of each strand
On to B1, for which the binding result in data set [1] and in data set [2] was “no binding” throughout.

B2: 25 (structured_RNA)
RNA: GCGGACUCCACCGC
modifications: m6A at position 5
As for B2, the Kd in data set [3] (hairpin) turned out to be 91.3 ± 4.65 µM; in data set [4] (hairpin), 75.3 ± 2.01 µM.

B3: 11 (ssRNA)
RNA: GCGGACUCCAGAUG
modifications: m6A at position 5
Consider B3, for which the Kd in data set [3] (random coil single strand) was found to be 97.1 ± 6.66 µM; in data set [4] (random coil single strand), 52.9 ± 2.21 µM.

B4: biotin-11 (ssRNA)
RNA: GCGGACUCCAGAUG
modifications: m6A at position 5
In the case of B4, the binding result in data set [5] was “binds”.
